We go through 15 molecules from patent US7879571B2, “Population based assessments and means to rank the relative immunogenicity of proteins” (Danisco US Inc., priority 2003, dated 2011).

Entries after “also recorded” stand apart in the source; their conditions may differ.

The test system of data set [1] is CD4+ T-cells. As to the kind of experiment: I-MUNE assay: CD4+ T-cell proliferation with dendritic cells and 15-mer peptides offset by 3 amino acids, community donors. The note with it: for Background +/- sd / Responses/peptide found: Table 5; for Background % / Structure Value / Response/Peptide: Table 3; for Response/Peptide: donors with SI>2.95 per peptide.
Experimental: Peptides were resuspended in DMSO at approximately 1 to 2 mg/ml, and stored at −70° C. prior to use. Each peptide was tested at least in duplicate, although for small peptide sets (e.g., Ber e 1), the peptides were routinely tested in triplicate.
Volunteer donor human blood buffy coat samples were obtained from two commercial sources (Stanford Blood Center, Palo Alto, Calif., and the Sacramento Medical Foundation, Sacramento, Calif.). Buffy coat samples were further purified by density separation. Each sample was HLA typed for HLA-DR and HLA-DQ using a commercial PCR-based kit (Bio-Synthesis).
Monocytes were purified by adherence to plastic in AIM V medium (Gibco/Life Technologies). Adherent cells were cultured in AIM V media containing 500 units/ml of recombinant human IL-4 (Endogen) and 800 units/ml recombinant human GM-CSF (Endogen) for 5 days. On day 5, recombinant human IL-1α (Endogen) and recombinant human TNF-α (Endogen) were added to 50 units/ml and 0.2 units/ml, respectively. On day 7, the fully matured dendritic cells were treated with 50 ug/ml mitomycin C (Sigma) for 1 hour at 37° C. Treated dendritic cells were dislodged with 50 mM EDTA in PBS, washed in AIM V medium, counted, and resuspended in AIM V media at 2×10^5 cells/ml.
CD4^+ T-cells were purified by negative selection from frozen aliquots of human peripheral blood mononuclear cells (PBMC) using Cellect CD4 columns (Cedarlane). CD4^+ T-cell populations were routinely >80% pure and >95% viable as judged by trypan blue (Sigma) exclusion. CD4^+ T-cells were resuspended in AIM V media at 2×10^6 cells per ml.
CD4^+ T-cells and dendritic cells were plated in round-bottomed 96 well format plates at 100 ul of each cell mix per well. Peptide was added to a final concentration of approximately 5 ug/ml in 0.25-0.5% DMSO. Control wells contained 0.5% DMSO without added peptide. Each peptide was tested in duplicate. Cultures were incubated at 37° C., in 5% CO2 for 5 days. On day 5, 0.5 uCi of tritiated thymidine (NEN DuPont,) was added to each well. On day 6, the cultures were harvested onto glass fiber mats using a TomTec manual harvester (TomTec), then processed for scintillation counting. Proliferation was assessed by determining the average counts per minute (CPM) value for each set of duplicate wells (TriLux Beta).
For each individual buffy coat sample, the average CPM values for all of the peptides were analyzed. The average CPM values for each peptide were divided by the average CPM value for the control (DMSO only) wells to determine the “stimulation index” (SI). Donors were tested with each peptide set until an average of at least two responses per peptide were compiled. The data for each protein was graphed showing the percent responders to each peptide within the set. A positive response was collated if the SI value was equal to or greater than 2.95. This value was chosen as it approximates a difference of three standard deviations in a normal population distribution. For each protein assessed, positive responses to individual peptides by individual donors were compiled. To determine the background response for a given protein, the percent responders for each peptide in the set were averaged and a standard deviation was calculated. SI values for each donor were compiled for each peptide set, and the percent of responders reported.
The test system of data set [2] is 18 different HLA-DR and -DQ proteins. As to the kind of experiment: HLA class II peptide binding competition assay, panel of 18 alleles. Also noted: species or system human. To be noted: good binders: IC50 less than 500 nM. As for the experimental part:
FIG. 17 provides a table showing the IC50 binding values for epitope peptides identified in bacterial proteases by the I-MUNE® assay system of the present invention. Values less than 500 nM are considered to be good binders and are highlighted in bold in the Table. Degeneracy indicates the number of HLA class II proteins that bind with an IC50 of less than 500 nM out of the 18 total alleles tested.
In addition to the above I-MUNE® assay, peptide binding assays were also performed. The peptide binding assay used during the development of the present invention is known in the art (Southwood et al., J. Immunol., 160:3363-3373 [1998]). Briefly, HLA-DR and -DQ molecules were purified from a panel of EBV transformed cell lines. A competition assay was performed with a characterized standard peptide, and the unknown peptide. The amount of unknown peptide required to compete 50% of the standard peptide binding was then determined (indicated as the IC50).
The IC50 for HLA class II protein binding was determined for peptide epitopes defined by the in two related industrial bacterial proteases (See, FIG. 17). The peptides were tested in a competition assay for binding to 18 different HLA-DR and -DQ proteins. […] This likely explains the association seen in the data for a response to this peptide with HLA-DR6(13) donors (p=0.00015; relative risk=7.22, n=113 donors tested). […]

The subject of data set [3] is PBMC. As to the kind of experiment: Maximum proliferative response of PBMC from 30 community donors to inactivated whole protein. The class given is cell-based, human. To be noted: inactivated enzymes, 5 to 40 ug/ml, 30 donors; p<0.01; listed as protease variant. As for the experimental part: FIG. 9 provides a graph showing the maximum proliferative responses of PBMC from 30 community donors to BPN′ Y217L (open triangles, structure value=0.53) and the […] BPN′ Y217L variant (closed squares, structure value=0.40). Each donor's maximum response is shown on the y-axis. An SI of 2.0 was the cut-off for a “positive” response. The difference in proliferative responses between BPN′ Y217L and the variant was p<0.01.
In these experiments, PMBC from thirty community donors were tested parametrically with either the whole protein parent enzyme (BPN′ Y217L) or the variant protease. The enzymes were inactivated, and tested over a dose range from 5 to 40 ug/ml. […] The difference between optimal SI values for the two proteins tested on these thirty donors was significant, with a two-tailed parametric t-test value of p<0.01.

For “hTpo: human thrombopoietin, a cytokine whose expression is restricted to the bone marrow”, in data set [1], the “Structure value in words” value is “comparatively high” and the “Background +/- sd” value is recorded as 2.54 +/− 2.23.

As for “BPN' Y217L#37: 15-mer epitope peptide number 37 of BPN′ Y217L, second epitope (amino acids 109-123) (NGIEWAIANNMDVIN; UniProt P00782 216-230, looked up, fragment)”, the “HLA class II binding (in words)” value in data set [2] is reported as “promiscuous”.

Turning to E7 16: HPV E7 protein, HPV strain 16, in data set [1], the Background % was 4.33%, the “Structure Value” was 0.66 and the Response/Peptide worked out at 3.9.

As for “E6 18: human papillomavirus E6 protein, HPV strain 18”, in data set [1], the “Background response in words (compared with the 11 industrial enzymes)” value is given as “not significantly different”, the Background % came to 4.23%, the “Structure Value” is 0.79 and the Response/Peptide was found to be 2.32. Further, in data set [1], the “Background +/- sd” value is given as 4.23 +/− 4.25 and the Responses/peptide found worked out at 2.32.

In the case of “BPN' Y217L #24: 15-mer epitope peptide number 24 of BPN′ Y217L, first epitope (amino acids 70-84) (GTVAALNNSIGVLGV; UniProt P00782 177-191, looked up, fragment)”, the “HLA class II binding (in words)” value in data set [2] is given as “binds most HLA class II molecules tested”.

E7 18: HPV E7 protein, HPV strain 18: in data set [1], the Background % is 3.55%, the “Structure Value” was 0.44 and the Response/Peptide stood at 3.19.

B1: E7 45: HPV E7 protein, HPV strain 45 (protein, UniProt P21736 1-106, looked up)
Protein E7: MHGPRETLQEIVLHLEPQNELDPVDLLCYEQLSESEEENDEADGVSHAQLPARRAEPQRHKILCVCCKCDGRIELTVESSAEDLRTLQQLFLSTLSFVCPWCATNQ
With B1, in data set [1], the Background % worked out at 3.75%, the “Structure Value” stood at 0.76 and the Response/Peptide was 2.44.

B2: E6 16: human papillomavirus E6 protein, HPV strain 16 (protein, UniProt P03126 1-158, looked up)
Protein E6: MHQKRTAMFQDPQERPRKLPQLCTELQTTIHDIILECVYCKQQLLRREVYDFAFRDLCIVYRDGNPYAVCDKCLKFYSKISEYRHYCYSLYGTTLEQQYNKPLCDLLIRCINCQKPLCPEEKQRHLDKKQRFHNIRGRWTGRCMSCCRSSRTRRETQL
On to B2, for which, in data set [1], the “Background response in words (compared with the 11 industrial enzymes)” value is given as “significantly higher”, the Background % was determined as 7.12%, the “Structure Value” amounted to 0.72 and the Response/Peptide was determined as 3.92. In data set [1], the “Background +/- sd” value is 7.12 +/− 6.48 and the Responses/peptide found is 3.92.

B3: ALCALASE ®: ALCALASE® enzyme, commercially available from Novo; Swissprot accession number P00780 (protein, UniProt P00780 106-379, looked up)
Subtilisin Carlsberg: AQTVPYGIPLIKADKVQAQGFKGANVKVAVLDTGIQASHPDLNVVGGASFVAGEAYNTDGNGHGTHVAGTVAALDNTTGVLGVAPSVSLYAVKVLNSSGSGSYSGIVSGIEWATTNGMDVINMSLGGASGSTAMKQAVDNAYAKGVVVVAAAGNSGSSGNTNTIGYPAKYDSVIAVGAVDSNSNRASFSSVGAELEVMAPGAGVYSTYPTNTYATLNGTSMASPHVAGAAALILSKHPNLSASQVRNRLSSTATYLGSSFYYGKGLINVEAAAQ
B3: the “Prominent responses (amino acids / peptide positions)” value in data set [1] (regions of the protein sequence) is on record as 19-33.

B4: E6 33: human papillomavirus E6 protein, HPV strain 33 (protein, UniProt P06427 1-149, looked up)
Protein E6: MFQDTEEKPRTLHDLCQALETTIHNIELQCVECKKPLQRSEVYDFAFADLTVVYREGNPFGICKLCLRFLSKISEYRHYNYSVYGNTLEQTVKKPLNEILIRCIICQRPLCPQEKKRHVDLNKRFHNISGRWAGRCAACWRSRRRETAL
B4: in data set [1], the Background % was found to be 2.83%, the “Structure Value” stood at 0.68 and the Response/Peptide is 1.97.

B5: BPN′ variant: BPN′ Y217L variant where prominent responses to amino acids 70-84 and 109-123 were reduced to background level (protein, UniProt P00782 108-382, looked up, variant Y217L)
Subtilisin BPN': AQSVPYGVSQIKAPALHSQGYTGSNVKVAVIDSGIDSSHPDLKVAGGASMVPSETNPFQDNNSHGTHVAGTVAALNNSIGVLGVAPSASLYAVKVLGADGSGQYSWIINGIEWAIANNMDVINMSLGGPSGSAALKAAVDKAVASGVVVVAAAGNEGTSGSSSTVGYPGKYPSVIAVGAVDSSNQRASFSSVGPELDVMAPGVSIQSTLPGNKYGALNGTSMASPHVAGAAALILSKHPNWTNTQVRSSLENTTTKLGDSFYYGKGLINVQAAAQ
For the molecule B5, the “Prominent Epitope” value in data set [1] (Table 4, number of prominent epitopes) is reported as 0. Besides, the “Structure value of variant” value in data set [1] (calculated from the 113-donor dataset with responses to 70-84 and 109-123 reduced to background levels) is 0.40. In data set [3], the “Proliferation compared with the parent protein (in words)” value is listed as “significantly less proliferation; also recorded: induced less proliferation”.

B6: E7 33: HPV E7 protein, HPV strain 33 (protein, UniProt P06429 1-97, looked up)
Protein E7: MRGHKPTLKEYVLDLYPEPTDLYCYEQLSDSSDEDEGLDRPDGQAQPATADYYIVTCCHTCNTTVRLCVNSTASDLRTIQQLLMGTVNIVCPTCAQQ
Turning to B6, in data set [1], the Background % is 4.32%, the “Structure Value” stood at 0.54 and the Response/Peptide worked out at 2.55.

B7: E6 31: human papillomavirus E6 protein, HPV strain 31 (protein, UniProt P17386 1-149, looked up)
Protein E6: MFKNPAERPRKLHELSSALEIPYDELRLNCVYCKGQLTETEVLDFAFTDLTIVYRDDTPHGVCTKCLRFYSKVSEFRWYRYSVYGTTLEKLTNKGICDLLIRCITCQRPLCPEEKQRHLDKKKRFHNIGGRWTGRCIACWRRPRTETQV
B7: in data set [1], the Background % stood at 4.66%, the “Structure Value” amounted to 0.53 and the Response/Peptide is reported as 3.26.

B8: E7 31: HPV E7 protein, HPV strain 31 (protein, UniProt P17387 1-98, looked up)
Protein E7: MRGETPTLQDYVLDLQPEATDLHCYEQLPDSSDEEDVIDSPAGQAEPDTSNYNIVTFCCQCKSTLRLCVQSTQVDIRILQELLMGSFGIVCPNCSTRL
On to B8, for which, in data set [1], the Background % is recorded as 5.26%, the “Structure Value” turned out to be 0.78 and the Response/Peptide stood at 3.1.

B9: sTNFR1: soluble tumor necrosis factor receptor 1, a soluble recombinant cytokine receptor molecule (protein, UniProt P19438 30-211, looked up)
extracellular domain: LVPHLGDREKRDSVCPQGKYIHPQNNSICCTKCHKGTYLYNDCPGPGQDTDCRECESGSFTASENHLRHCLSCSKCRKEMGQVEISSCTVDRDTVCGCRKNQYRHYWSENLFQCFNCSLCLNGTVHLSCQEKQNTVCTCHAGFFLRENECVSCSNCKKSLECTKLCLPQIENVKGTEDSGTT
modifications: extracellular domain
For B9, in data set [1], the “Background +/- sd” value is 2.23 +/− 1.95.
